B1: Transcriptional repressor p66-beta (Homo sapiens), Q8WXI9 (parent)
chain: MDRMTEDALRLNLLKRSLDPADERDDVLAKRLKMEGHEAMERLKMLALLKRKDLANLEVPHELPTKQDGSGVKGYEEKLNGNLRPHGDNRTAGRPGKENINDEPVDMSARRSEPERGRLTPSPDIIVLSDNEASSPRSSSRMEERLKAANLEMFKGKGIEERQQLIKQLRDELRLEEARLVLLKKLRQSQLQKENVVQKTPVVQNAASIVQPSPAHVGQQGLSKLPSRPGAQGVEPQNLRTLQGHSVIRSATNTTLPHMLMSQRVIAPNPAQLQGQRGPPKPGLVRTTTPNMNPAINYQPQSSSSVPCQRTTSSAIYMNLASHIQPGTVNRVSSPLPSPSAMTDAANSQAAAKLALRKQLEKTLLEIPPPKPPAPLLHFLPSAANSEFIYMVGLEEVVQSVIDSQGKSCASLLRVEPFVCAQCRTDFTPHWKQEKNGKILCEQCMTSNQKKALKAEHTNRLKNAFVKALQQEQEIEQRLQQQAALSPTTAPAVSSVSKQETIMRHHTLRQAPQPQSSLQRGIPTSARSMLSNFAQAPQLSVPGGLLGMPGVNIAYLNTGIGGHKGPSLADRQREYLLDMIPPRSISQSISGQK
B2: Tyrosine-protein phosphatase non-receptor type 9 (Homo sapiens), P43378 (parent)
chain: MEPATAPRPDMAPELTPEEEQATKQFLEEINKWTVQYNVSPLSWNVAVKFLMARKFDVLRAIELFHSYRETRRKEGIVKLKPHEEPLRSEILSGKFTILNVRDPTGASIALFTARLHHPHKSVQHVVLQALFYLLDRAVDSFETQRNGLVFIYDMCGSNYANFELDLGKKVLNLLKGAFPARLKKVLIVGAPIWFRVPYSIISLLLKDKVRERIQILKTSEVTQHLPRECLPENLGGYVKIDLATWNFQFLPQVNGHPDPFDEIILFSLPPALDWDSVHVPGPHAMTIQELVDYVNARQKQGIYEEYEDIRRENPVGTFHCSMSPGNLEKNRYGDVPCLDQTRVKLTKRSGHTQTDYINASFMDGYKQKNAYIGTQGPLENTYRDFWLMVWEQKVLVIVMTTRFEEGGRRKCGQYWPLEKDSRIRFGFLTVTNLGVENMNHYKKTTLEIHNTEERQKRQVTHFQFLSWPDYGVPSSAASLIDFLRVVRNQQSLAVSNMGARSKGQCPEPPIVVHCSAGIGRTGTFCSLDICLAQLEELGTLNVFQTVSRMRTQRAFSIQTPEQYYFCYKAILEFAEKEGMVSSGQNLLAVESQ
partner: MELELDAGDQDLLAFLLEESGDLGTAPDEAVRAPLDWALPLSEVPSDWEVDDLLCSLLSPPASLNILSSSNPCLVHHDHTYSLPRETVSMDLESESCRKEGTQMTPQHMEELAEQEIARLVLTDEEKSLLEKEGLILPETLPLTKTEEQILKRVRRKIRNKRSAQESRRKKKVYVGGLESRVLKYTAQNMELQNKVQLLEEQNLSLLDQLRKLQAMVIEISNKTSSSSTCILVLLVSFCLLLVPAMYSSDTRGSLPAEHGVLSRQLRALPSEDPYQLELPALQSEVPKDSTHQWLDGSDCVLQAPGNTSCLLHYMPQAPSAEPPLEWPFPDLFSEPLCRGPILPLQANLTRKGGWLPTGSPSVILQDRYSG
B3: Tuftelin-interacting protein 11 (Homo sapiens), Q9UBB9 (parent)
chain: MSLSHLYRDGEGRIDDDDDERENFEITDWDLQNEFNPNRQRHWQTKEEATYGVWAERDSDDERPSFGGKRARDYSAPVNFISAGLKKGAAEEAELEDSDDEEKPVKQDDFPKDFGPRKLKTGGNFKPSQKGFAGGTKSFMDFGSWERHTKGIGQKLLQKMGYVPGRGLGKNAQGIINPIEAKQRKGKGAVGAYGSERTTQSMQDFPVVDSEEEAEEEFQKELSQWRKDPSGSKKKPKYSYKTVEELKAKGRISKKLTAPQKELSQVKVIDMTGREQKVYYSYSQISHKHNVPDDGLPLQSQQLPQSGKEAKAPGFALPELEHNLQLLIDLTEQEIIQNDRQLQYERDMVVNLFHELEKMTEVLDHEERVISNLSKVLEMVEECERRMQPDCSNPLTLDECARIFETLQDKYYEEYRMSDRVDLAVAIVYPLMKEYFKEWDPLKDCTYGTEIISKWKSLLENDQLLSHGGQDLSADAFHRLIWEVWMPFVRNIVTQWQPRNCDPMVDFLDSWVHIIPVWILDNILDQLIFPKLQKEVENWNPLTDTVPIHSWIHPWLPLMQARLEPLYSPIRSKLSSALQKWHPSDSSAKLILQPWKDVFTPGSWEAFMVKNIVPKLGMCLGELVINPHQQHMDAFYWVIDWEGMISVSSLVGLLEKHFFPKWLQVLCSWLSNSPNYEEITKWYLGWKSMFSDQVLAHPSVKDKFNEALDIMNRAVSSNVGAYMQPGARENIAYLTHTERRKDFQYEAMQERREAENMAQRGIGVAASSVPMNFKDLIETKAEEHNIVFMPVIGKRHEGKQLYTFGRIVIYIDRGVVFVQGEKTWVPTSLQSLIDMAK
partner: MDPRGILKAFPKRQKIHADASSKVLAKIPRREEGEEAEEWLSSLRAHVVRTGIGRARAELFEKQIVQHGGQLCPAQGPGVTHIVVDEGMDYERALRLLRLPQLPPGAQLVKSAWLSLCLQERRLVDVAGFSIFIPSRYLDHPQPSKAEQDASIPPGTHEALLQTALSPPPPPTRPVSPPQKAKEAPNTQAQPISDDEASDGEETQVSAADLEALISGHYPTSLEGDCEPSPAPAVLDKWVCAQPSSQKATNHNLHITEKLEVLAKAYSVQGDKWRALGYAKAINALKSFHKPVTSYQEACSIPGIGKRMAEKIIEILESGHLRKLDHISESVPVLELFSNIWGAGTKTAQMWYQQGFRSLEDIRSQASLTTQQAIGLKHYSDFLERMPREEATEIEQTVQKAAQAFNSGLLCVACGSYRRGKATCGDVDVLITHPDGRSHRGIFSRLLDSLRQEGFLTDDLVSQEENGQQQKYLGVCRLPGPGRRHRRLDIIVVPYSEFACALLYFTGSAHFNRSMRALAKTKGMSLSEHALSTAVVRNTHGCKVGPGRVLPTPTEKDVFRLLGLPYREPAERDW
B4: 2'-5'-oligoadenylate synthase 1 (Homo sapiens), P00973 (parent)
chain: MMDLRNTPAKSLDKFIEDYLLPDTCFRMQINHAIDIICGFLKERCFRGSSYPVCVSKVVKGGSSGKGTTLRGRSDADLVVFLSPLTTFQDQLNRRGEFIQEIRRQLEACQRERAFSVKFEVQAPRWGNPRALSFVLSSLQLGEGVEFDVLPAFDALGQLTGGYKPNPQIYVKLIEECTDLQKEGEFSTCFTELQRDFLKQRPTKLKSLIRLVKHWYQNCKKKLGKLPPQYALELLTVYAWERGSMKTHFNTAQGFRTVLELVINYQQLCIYWTKYYDFKNPIIEKYLRRQLTKPRPVILDPADPTGNLGGGDPKGWRQLAQEAEAWLNYPCFKNWDGSPVSSWILLAESNSADDETDDPRRYQKYGYIGTHEYPHFSHRPSTLQAASTPQAEEDWTCTIL
B5: Uncharacterized protein C12orf50 (Homo sapiens), Q8NA57 (parent)
chain: MEMQQNCSISCFWETQPLGCVKISCIFYHSKPRNINGLFLPPSSNITLQKEIQEGIPLQSQSQEPLKPQENISRPIHHPLVLKTNFEEEEEVDEQNDASSLWTKTPEEIEEKRAIKEMCYKSGEYYRFHTPPDILSSKSMTPTAEKQLEKPLENGSELQEGDSLTVPTKLSQYERQGEIKTSLHGKPKTDIAAFENGGGDCYVPQRVIFLGVDESEALTEEKEITISKCSNTKDNKDSPHPKHSLTTRLVPTTHVLNATENISMKCREDPSSMNDVQPVKKPHFKGVKKRKWIYDEPQNFPNSGMQRAVQAPRPQNKMSYHRNNKNRNAENASYIHVQRDAVRTVALNAPSRSRPTHGSYNKVHANREPKPNLSPDKYTSTSYNDSAWRKRIPFSKTYSKSEKIYPEPRRNGSK
partner: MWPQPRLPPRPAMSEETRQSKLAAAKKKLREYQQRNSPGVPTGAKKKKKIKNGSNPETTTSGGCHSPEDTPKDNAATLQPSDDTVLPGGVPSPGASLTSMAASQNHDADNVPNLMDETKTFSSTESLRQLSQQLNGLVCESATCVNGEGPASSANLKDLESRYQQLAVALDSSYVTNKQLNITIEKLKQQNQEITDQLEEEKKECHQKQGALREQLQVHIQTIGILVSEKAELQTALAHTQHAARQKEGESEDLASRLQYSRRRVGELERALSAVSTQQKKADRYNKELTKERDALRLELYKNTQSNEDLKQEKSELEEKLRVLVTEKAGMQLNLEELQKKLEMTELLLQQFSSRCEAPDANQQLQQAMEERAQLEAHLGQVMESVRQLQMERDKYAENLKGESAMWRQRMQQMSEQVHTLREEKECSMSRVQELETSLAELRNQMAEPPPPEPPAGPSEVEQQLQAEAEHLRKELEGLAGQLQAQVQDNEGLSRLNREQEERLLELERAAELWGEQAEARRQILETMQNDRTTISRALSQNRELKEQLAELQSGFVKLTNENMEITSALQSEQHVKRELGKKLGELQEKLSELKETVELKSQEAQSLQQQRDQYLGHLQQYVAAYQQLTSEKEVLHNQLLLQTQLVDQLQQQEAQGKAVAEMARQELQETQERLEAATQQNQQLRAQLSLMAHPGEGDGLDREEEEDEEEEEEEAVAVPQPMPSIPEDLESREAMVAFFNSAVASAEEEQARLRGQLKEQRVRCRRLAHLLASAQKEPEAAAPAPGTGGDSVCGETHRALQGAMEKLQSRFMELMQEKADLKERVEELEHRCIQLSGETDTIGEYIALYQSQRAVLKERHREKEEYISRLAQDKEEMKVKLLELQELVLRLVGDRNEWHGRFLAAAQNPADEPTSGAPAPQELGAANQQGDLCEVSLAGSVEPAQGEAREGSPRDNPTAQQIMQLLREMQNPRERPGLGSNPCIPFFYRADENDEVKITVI

The variants in the first assay derive from B1. The following applies: with traf1_human TRAF1, Q13077.
Chain of traf1_human TRAF1, Q13077 (Q13077 whole entry): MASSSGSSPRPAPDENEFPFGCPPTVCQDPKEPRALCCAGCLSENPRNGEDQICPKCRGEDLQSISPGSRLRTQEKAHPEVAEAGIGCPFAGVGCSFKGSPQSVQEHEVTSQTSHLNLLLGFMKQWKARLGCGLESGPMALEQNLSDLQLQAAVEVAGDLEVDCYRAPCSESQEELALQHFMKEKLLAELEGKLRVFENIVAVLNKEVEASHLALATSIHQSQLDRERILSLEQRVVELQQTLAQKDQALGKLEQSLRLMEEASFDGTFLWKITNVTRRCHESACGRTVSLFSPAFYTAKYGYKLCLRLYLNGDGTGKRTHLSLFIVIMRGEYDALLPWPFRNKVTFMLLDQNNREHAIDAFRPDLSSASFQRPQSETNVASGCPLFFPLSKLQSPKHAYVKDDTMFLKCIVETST
For A490V, the “effect of a mutation on the interaction” value is recorded as “with no effect”.

Variants of B2 are the subject of another assay. The settings on record: with creb3_human CREB3, O43889.
As for R72Q, the “effect of a mutation on the interaction” value is on record as “with no effect”.

The variants in another assay derive from B3. The following applies: with dpoll_human POLL.
S688L: the “effect of a mutation on the interaction” value is listed as “with no effect”. With R8Q, the “effect of a mutation on the interaction” value is “with no effect”.

Variants of B4 are the subject of another assay. The settings on record: with actn1_human ACTN1, P12814.
Chain of actn1_human ACTN1, P12814 (P12814 whole entry): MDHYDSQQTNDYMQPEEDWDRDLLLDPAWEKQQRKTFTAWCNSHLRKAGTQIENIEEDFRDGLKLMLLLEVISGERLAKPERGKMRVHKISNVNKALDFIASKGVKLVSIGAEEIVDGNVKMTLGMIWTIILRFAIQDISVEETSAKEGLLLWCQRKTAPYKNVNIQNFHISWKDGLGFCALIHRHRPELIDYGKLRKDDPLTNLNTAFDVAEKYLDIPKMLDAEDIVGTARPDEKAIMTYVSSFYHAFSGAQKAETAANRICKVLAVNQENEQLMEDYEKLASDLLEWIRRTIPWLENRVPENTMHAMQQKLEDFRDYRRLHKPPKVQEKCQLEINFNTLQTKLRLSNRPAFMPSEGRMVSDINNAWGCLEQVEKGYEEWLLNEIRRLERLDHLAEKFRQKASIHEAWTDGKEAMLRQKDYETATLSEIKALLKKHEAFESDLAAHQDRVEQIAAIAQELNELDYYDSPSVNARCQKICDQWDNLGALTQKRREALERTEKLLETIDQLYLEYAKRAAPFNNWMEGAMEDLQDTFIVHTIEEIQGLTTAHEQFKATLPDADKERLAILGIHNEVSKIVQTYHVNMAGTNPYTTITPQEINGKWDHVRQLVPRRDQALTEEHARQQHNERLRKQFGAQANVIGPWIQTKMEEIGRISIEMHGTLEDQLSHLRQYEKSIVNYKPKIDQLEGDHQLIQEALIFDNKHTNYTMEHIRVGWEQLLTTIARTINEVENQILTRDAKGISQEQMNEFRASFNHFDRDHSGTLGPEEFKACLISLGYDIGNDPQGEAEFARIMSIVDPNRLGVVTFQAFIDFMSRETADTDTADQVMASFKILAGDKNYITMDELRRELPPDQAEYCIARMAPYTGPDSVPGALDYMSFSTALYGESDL
For L327P, the “effect of a mutation on the interaction” value is on record as “disrupting interaction strength”.

Variants of B5 are the subject of another assay. The settings on record: with goga2_human GOLGA2, Q08379.
Turning to Y334C, the “effect of a mutation on the interaction” value was “with no effect”.
